Assay results published in PMC11910620 (Nature Communications, 2025).
Values joined by “and” are separate entries in the source; they are usually repeats but may differ in a detail not shown here. Equal values may be shown once.

T1: Msn5 (S. cerevisiae exportin), wild type (S. cerevisiae, UniProt P52918 1-1224)
T1 sequence: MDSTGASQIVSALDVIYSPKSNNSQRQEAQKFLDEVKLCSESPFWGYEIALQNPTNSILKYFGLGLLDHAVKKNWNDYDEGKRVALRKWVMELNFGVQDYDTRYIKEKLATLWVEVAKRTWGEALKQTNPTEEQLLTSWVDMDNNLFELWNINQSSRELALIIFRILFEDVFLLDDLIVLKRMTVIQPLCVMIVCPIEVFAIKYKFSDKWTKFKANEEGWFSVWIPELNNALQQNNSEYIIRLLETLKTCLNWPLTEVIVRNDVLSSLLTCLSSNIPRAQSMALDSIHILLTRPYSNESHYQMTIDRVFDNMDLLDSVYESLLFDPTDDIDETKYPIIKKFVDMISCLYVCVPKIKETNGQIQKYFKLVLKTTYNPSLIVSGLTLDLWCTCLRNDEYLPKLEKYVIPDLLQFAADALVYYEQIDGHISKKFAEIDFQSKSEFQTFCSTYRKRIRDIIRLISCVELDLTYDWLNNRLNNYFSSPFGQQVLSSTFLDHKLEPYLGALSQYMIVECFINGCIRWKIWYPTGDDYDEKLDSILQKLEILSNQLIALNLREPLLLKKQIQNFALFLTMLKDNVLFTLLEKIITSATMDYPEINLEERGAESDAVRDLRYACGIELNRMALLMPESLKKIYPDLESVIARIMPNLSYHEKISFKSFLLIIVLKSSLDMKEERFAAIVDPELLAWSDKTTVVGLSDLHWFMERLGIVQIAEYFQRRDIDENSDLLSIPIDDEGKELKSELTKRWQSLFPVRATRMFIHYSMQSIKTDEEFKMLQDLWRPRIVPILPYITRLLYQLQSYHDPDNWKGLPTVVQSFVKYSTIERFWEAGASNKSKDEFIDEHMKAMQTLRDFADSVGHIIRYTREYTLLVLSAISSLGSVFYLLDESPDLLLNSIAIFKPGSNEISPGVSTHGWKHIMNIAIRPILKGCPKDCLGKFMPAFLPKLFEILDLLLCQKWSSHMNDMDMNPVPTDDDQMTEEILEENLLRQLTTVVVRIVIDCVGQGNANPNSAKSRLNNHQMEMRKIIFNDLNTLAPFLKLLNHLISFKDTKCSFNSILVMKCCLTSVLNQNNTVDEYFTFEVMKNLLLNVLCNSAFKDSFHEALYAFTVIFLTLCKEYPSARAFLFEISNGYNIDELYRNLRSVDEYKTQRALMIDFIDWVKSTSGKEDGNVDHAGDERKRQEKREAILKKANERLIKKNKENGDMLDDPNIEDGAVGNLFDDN

T2: Msn5 RRAA (R393A, R458A) (S. cerevisiae, UniProt P52918 1-1224, RRAA (R393) | RRAA (R458))
T2 sequence: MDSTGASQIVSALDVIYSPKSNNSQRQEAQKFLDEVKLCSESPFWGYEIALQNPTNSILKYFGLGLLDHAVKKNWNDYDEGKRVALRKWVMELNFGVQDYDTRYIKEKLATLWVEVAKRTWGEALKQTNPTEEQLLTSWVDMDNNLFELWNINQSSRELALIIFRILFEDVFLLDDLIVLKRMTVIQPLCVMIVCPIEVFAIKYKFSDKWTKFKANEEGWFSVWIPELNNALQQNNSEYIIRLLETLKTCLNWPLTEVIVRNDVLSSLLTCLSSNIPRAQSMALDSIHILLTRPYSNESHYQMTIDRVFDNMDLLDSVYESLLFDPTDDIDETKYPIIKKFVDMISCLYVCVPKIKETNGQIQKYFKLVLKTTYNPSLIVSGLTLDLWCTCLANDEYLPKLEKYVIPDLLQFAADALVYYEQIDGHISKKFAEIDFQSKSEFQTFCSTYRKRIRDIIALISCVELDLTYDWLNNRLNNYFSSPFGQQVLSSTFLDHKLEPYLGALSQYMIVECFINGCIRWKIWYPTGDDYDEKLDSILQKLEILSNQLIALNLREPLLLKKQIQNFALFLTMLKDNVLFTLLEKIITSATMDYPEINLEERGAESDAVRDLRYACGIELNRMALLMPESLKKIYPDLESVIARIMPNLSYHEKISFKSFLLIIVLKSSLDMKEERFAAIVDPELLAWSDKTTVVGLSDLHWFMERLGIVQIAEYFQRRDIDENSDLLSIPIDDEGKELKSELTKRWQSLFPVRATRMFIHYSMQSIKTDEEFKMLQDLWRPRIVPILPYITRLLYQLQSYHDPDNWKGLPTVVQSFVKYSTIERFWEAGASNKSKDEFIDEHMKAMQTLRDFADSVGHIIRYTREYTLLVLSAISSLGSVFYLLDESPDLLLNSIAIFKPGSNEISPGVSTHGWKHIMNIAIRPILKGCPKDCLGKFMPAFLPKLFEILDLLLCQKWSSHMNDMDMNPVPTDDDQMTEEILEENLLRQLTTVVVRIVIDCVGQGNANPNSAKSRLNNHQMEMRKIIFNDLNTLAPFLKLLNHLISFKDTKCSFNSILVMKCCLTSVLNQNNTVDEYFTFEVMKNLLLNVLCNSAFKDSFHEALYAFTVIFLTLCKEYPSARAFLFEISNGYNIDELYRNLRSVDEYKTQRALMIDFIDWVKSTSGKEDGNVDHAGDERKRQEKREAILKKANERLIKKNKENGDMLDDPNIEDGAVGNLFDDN


Columns and labels:
[1] = molecular target: T1, Msn5 (S. cerevisiae exportin), wild type; assay: fluorescence polarisation
Msn5 RRAA (R393A, R458A) = molecular target: T2, Msn5 RRAA (R393A, R458A); assay: fluorescence polarisation
[2] = molecular target: T1, Msn5 (S. cerevisiae exportin), wild type; assay: cryo-EM structure

| Binder | Kd [1] | Kd (Msn5 RRAA (R393A, R458A)) [nM] | binding result [2] |
| --- | --- | --- | --- |
| mNeonGreen-pPho4_(3-200), wild type, phosphorylated (domain or fragment, phosphorylated in vitro by Pho80-Pho85: pS100, pS114, pS128, pS152) RTTSEGIHGFVDDLEPKSSILDKVGDFITVNTKRHDGREDFNEQNDELNSQENHNSSENGNENENEQDSLALDDLDRAFELVEGMDMDWMMPSHAHHSPATTATIKPRLLYSPLIHTQSAVPVTISPNLVATATSTTSANKVTKNKSNSSPYLNKRRGKPGPDSATSLFELPDSVIPTPKPKPKPKQYPKVILPSNST | 20 nM and 44 nM and 25 nM | 2200 | – |
| pPho4_(1-200), phosphorylated, GST removed (domain or fragment, phosphorylated in vitro by Pho80-Pho85: pS100, pS114, pS128, pS152 (pS114 and pS128 seen in the structure)) MGRTTSEGIHGFVDDLEPKSSILDKVGDFITVNTKRHDGREDFNEQNDELNSQENHNSSENGNENENEQDSLALDDLDRAFELVEGMDMDWMMPSHAHHSPATTATIKPRLLYSPLIHTQSAVPVTISPNLVATATSTTSANKVTKNKSNSSPYLNKRRGKPGPDSATSLFELPDSVIPTPKPKPKPKQYPKVILPSNST | – | – | binds |
